What was measured:
[1] = target: Human Type 1 mutCALR (human); test: cell-based or functional assay
[2] = target: recombinant Flag tag_GFP_tev_hmutCALR Type 1 (human); test: HTRF competition against the mutCALR/MPL complex

| IC50 of inhibition of cell proliferation (BaF3 cells expressing MPL/mutCALR Type 1) [1] | concentration at which some signal inhibition was seen [2] | Substance |
| --- | --- | --- |
| > 60 µg/mL | – | AB1: CAL2 antibody, Dianova |
| – | > 100 nM | CAL2 antibody (Dianova) |
